Assay results from patent US20130005646A1 (Novo Nordisk, published 2013).
Starred links: 1 amine or outer side, 2 acyl side, 3 side chain; linkers in the order of their positions; H or OH if unused. Positions of bridges follow the written chain, without caps; N, C: chain ends. *: point of attachment. X1 = (S)‑4‑Carboxy‑4‑(19-carboxynonadecanoylamino)butyryl, O=C(O)CCCCCCCCCCCCCCCCCCC(=O)N[C@@H](CCC(=O)*)C(=O)O; C20 diacid = O=C(O)CCCCCCCCCCCCCCCCCCC(=O)*; γGlu = O=C(O)[C@H](CCC(=O)[*:2])N[*:1]

T1: human calcitonin (a) receptor (human, UniProt P30988 25-474)
T1 sequence (looked up): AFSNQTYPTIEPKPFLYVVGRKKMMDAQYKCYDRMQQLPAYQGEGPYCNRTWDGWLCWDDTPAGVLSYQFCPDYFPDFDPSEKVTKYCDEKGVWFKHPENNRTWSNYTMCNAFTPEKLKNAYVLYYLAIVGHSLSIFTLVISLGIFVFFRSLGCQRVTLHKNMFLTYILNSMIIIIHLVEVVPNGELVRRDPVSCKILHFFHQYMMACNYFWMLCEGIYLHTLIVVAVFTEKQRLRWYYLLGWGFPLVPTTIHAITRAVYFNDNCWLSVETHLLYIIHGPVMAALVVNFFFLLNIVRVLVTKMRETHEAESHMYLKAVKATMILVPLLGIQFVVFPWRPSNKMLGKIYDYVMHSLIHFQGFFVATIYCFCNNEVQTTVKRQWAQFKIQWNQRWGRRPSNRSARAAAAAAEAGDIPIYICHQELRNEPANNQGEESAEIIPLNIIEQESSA

T2: human amylin 3(a) receptor (human calcitonin receptor + RAMP-3) (human, UniProt P30988 25-474; O60896 24-148)
T2 sequence (looked up) 1: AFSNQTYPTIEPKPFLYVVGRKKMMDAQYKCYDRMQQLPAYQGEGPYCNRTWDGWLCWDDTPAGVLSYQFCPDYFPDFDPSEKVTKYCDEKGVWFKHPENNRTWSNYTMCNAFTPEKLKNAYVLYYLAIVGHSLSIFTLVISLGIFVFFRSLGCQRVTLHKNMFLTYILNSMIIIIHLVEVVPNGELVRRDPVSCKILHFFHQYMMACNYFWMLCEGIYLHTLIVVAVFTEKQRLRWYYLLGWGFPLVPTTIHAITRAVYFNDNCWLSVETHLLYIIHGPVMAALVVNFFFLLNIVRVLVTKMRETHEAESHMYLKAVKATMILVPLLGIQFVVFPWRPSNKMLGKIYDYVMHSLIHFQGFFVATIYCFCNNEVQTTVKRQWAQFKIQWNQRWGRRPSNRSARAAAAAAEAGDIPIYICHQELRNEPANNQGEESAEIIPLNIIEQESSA
T2 sequence (looked up) 2: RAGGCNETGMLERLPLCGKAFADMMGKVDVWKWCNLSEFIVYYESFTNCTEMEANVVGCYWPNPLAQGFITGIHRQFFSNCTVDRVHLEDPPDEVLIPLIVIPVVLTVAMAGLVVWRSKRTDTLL


Experiments:
[1] = target: T1, human calcitonin (a) receptor; test: cell-based or functional assay
[2] = target: T2, human amylin 3(a) receptor (human …); test: cell-based or functional assay

Row | Binder | CTa receptor human EC50 [1] [nM] | Amylin receptor human EC50 [2] [nM]
1 | X1-HCNTATCATQRLAEFLHRSSNNFGAPLSSTNVGSNTY-NH2 (disulfide 2-7; SMILES CC(C)C[C@H](NC(=O)[C@H](CCCNC(=N)N)NC(=O)[C@H](CCC(N)=O)NC(=O)[C@@H](NC(=O)[C@H](C)NC(=O)[C@@H]1CSSC[C@H](NC(=O)[C@H](Cc2c[nH]cn2)NC(=O)CC[C@H](NC(=O)CCCCCCCCCCCCCCCCCCC(=O)O)C(=O)O)C(=O)N[C@@H](CC(N)=O)C(=O)N[C@@H]([C@@H](C)O)C(=O)N[C@@H](C)C(=O)N[C@@H]([C@@H](C)O)C(=O)N1)[C@@H](C)O)C(=O)N[C@@H](C)C(=O)N[C@@H](CCC(=O)O)C(=O)N[C@@H](Cc1ccccc1)C(=O)N[C@@H](CC(C)C)C(=O)N[C@@H](Cc1c[nH]cn1)C(=O)N[C@@H](CCCNC(=N)N)C(=O)N[C@@H](CO)C(=O)N[C@@H](CO)C(=O)N[C@@H](CC(N)=O)C(=O)N[C@@H](CC(N)=O)C(=O)N[C@@H](Cc1ccccc1)C(=O)NCC(=O)N[C@@H](C)C(=O)N1CCC[C@H]1C(=O)N[C@@H](CC(C)C)C(=O)N[C@@H](CO)C(=O)N[C@@H](CO)C(=O)N[C@H](C(=O)N[C@@H](CC(N)=O)C(=O)N[C@H](C(=O)NCC(=O)N[C@@H](CO)C(=O)N[C@@H](CC(N)=O)C(=O)N[C@H](C(=O)N[C@@H](Cc1ccc(O)cc1)C(N)=O)[C@@H](C)O)C(C)C)[C@@H](C)O) | 0.24 | 0.115
2 | {C20 diacid-γGlu}-ECNTATCATQRLAEFLHRSSNNFGPILPPTNVGSNTY-NH2 (disulfide 2-7; SMILES CC[C@H](C)[C@H](NC(=O)[C@@H]1CCCN1C(=O)CNC(=O)[C@H](Cc1ccccc1)NC(=O)[C@H](CC(N)=O)NC(=O)[C@H](CC(N)=O)NC(=O)[C@H](CO)NC(=O)[C@H](CO)NC(=O)[C@H](CCCNC(=N)N)NC(=O)[C@H](Cc1c[nH]cn1)NC(=O)[C@H](CC(C)C)NC(=O)[C@H](Cc1ccccc1)NC(=O)[C@H](CCC(=O)O)NC(=O)[C@H](C)NC(=O)[C@H](CC(C)C)NC(=O)[C@H](CCCNC(=N)N)NC(=O)[C@H](CCC(N)=O)NC(=O)[C@@H](NC(=O)[C@H](C)NC(=O)[C@@H]1CSSC[C@H](NC(=O)[C@H](CCC(=O)O)NC(=O)CC[C@H](NC(=O)CCCCCCCCCCCCCCCCCCC(=O)O)C(=O)O)C(=O)N[C@@H](CC(N)=O)C(=O)N[C@@H]([C@@H](C)O)C(=O)N[C@@H](C)C(=O)N[C@@H]([C@@H](C)O)C(=O)N1)[C@@H](C)O)C(=O)N[C@@H](CC(C)C)C(=O)N1CCC[C@H]1C(=O)N1CCC[C@H]1C(=O)N[C@H](C(=O)N[C@@H](CC(N)=O)C(=O)N[C@H](C(=O)NCC(=O)N[C@@H](CO)C(=O)N[C@@H](CC(N)=O)C(=O)N[C@H](C(=O)N[C@@H](Cc1ccc(O)cc1)C(N)=O)[C@@H](C)O)C(C)C)[C@@H](C)O) [N-alpha-[(S)-4-Carboxy-4-(19-carboxynonadecanoylamino)butyryl]-[Glu1,Glu14,His17,Arg18]-pramlintide] | 1.65 | 0.353
3 | {C20 diacid-γGlu}-HCNTATCETQRLAEFLHRSSNNFGPILPPTNVGSNTY-NH2 (disulfide 2-7; SMILES CC[C@H](C)[C@H](NC(=O)[C@@H]1CCCN1C(=O)CNC(=O)[C@H](Cc1ccccc1)NC(=O)[C@H](CC(N)=O)NC(=O)[C@H](CC(N)=O)NC(=O)[C@H](CO)NC(=O)[C@H](CO)NC(=O)[C@H](CCCNC(=N)N)NC(=O)[C@H](Cc1c[nH]cn1)NC(=O)[C@H](CC(C)C)NC(=O)[C@H](Cc1ccccc1)NC(=O)[C@H](CCC(=O)O)NC(=O)[C@H](C)NC(=O)[C@H](CC(C)C)NC(=O)[C@H](CCCNC(=N)N)NC(=O)[C@H](CCC(N)=O)NC(=O)[C@@H](NC(=O)[C@H](CCC(=O)O)NC(=O)[C@@H]1CSSC[C@H](NC(=O)[C@H](Cc2c[nH]cn2)NC(=O)CC[C@H](NC(=O)CCCCCCCCCCCCCCCCCCC(=O)O)C(=O)O)C(=O)N[C@@H](CC(N)=O)C(=O)N[C@@H]([C@@H](C)O)C(=O)N[C@@H](C)C(=O)N[C@@H]([C@@H](C)O)C(=O)N1)[C@@H](C)O)C(=O)N[C@@H](CC(C)C)C(=O)N1CCC[C@H]1C(=O)N1CCC[C@H]1C(=O)N[C@H](C(=O)N[C@@H](CC(N)=O)C(=O)N[C@H](C(=O)NCC(=O)N[C@@H](CO)C(=O)N[C@@H](CC(N)=O)C(=O)N[C@H](C(=O)N[C@@H](Cc1ccc(O)cc1)C(N)=O)[C@@H](C)O)C(C)C)[C@@H](C)O) | 4.3 | 0.602

Continued, values first:

Row | CTa receptor human EC50 [1] [nM] | Amylin receptor human EC50 [2] [nM] | Binder
4 | 0.284 | 0.253 | {C20 diacid-γGlu}-CGTATCATQRLAEFLHRSSQQFGPILPPTEVGSGTY-NH2 (disulfide 1-6; SMILES CC[C@H](C)[C@H](NC(=O)[C@@H]1CCCN1C(=O)CNC(=O)[C@H](Cc1ccccc1)NC(=O)[C@H](CCC(N)=O)NC(=O)[C@H](CCC(N)=O)NC(=O)[C@H](CO)NC(=O)[C@H](CO)NC(=O)[C@H](CCCNC(=N)N)NC(=O)[C@H](Cc1c[nH]cn1)NC(=O)[C@H](CC(C)C)NC(=O)[C@H](Cc1ccccc1)NC(=O)[C@H](CCC(=O)O)NC(=O)[C@H](C)NC(=O)[C@H](CC(C)C)NC(=O)[C@H](CCCNC(=N)N)NC(=O)[C@H](CCC(N)=O)NC(=O)[C@@H](NC(=O)[C@H](C)NC(=O)[C@@H]1CSSC[C@H](NC(=O)CC[C@H](NC(=O)CCCCCCCCCCCCCCCCCCC(=O)O)C(=O)O)C(=O)NCC(=O)N[C@@H]([C@@H](C)O)C(=O)N[C@@H](C)C(=O)N[C@@H]([C@@H](C)O)C(=O)N1)[C@@H](C)O)C(=O)N[C@@H](CC(C)C)C(=O)N1CCC[C@H]1C(=O)N1CCC[C@H]1C(=O)N[C@H](C(=O)N[C@@H](CCC(=O)O)C(=O)N[C@H](C(=O)NCC(=O)N[C@@H](CO)C(=O)NCC(=O)N[C@H](C(=O)N[C@@H](Cc1ccc(O)cc1)C(N)=O)[C@@H](C)O)C(C)C)[C@@H](C)O)
5 | 0.222 | 0.164 | {C20 diacid-γGlu}-CGTATCATQRLAEFLHRSSNNFGPILPPTEVGSGTY-NH2 (disulfide 1-6; SMILES CC[C@H](C)[C@H](NC(=O)[C@@H]1CCCN1C(=O)CNC(=O)[C@H](Cc1ccccc1)NC(=O)[C@H](CC(N)=O)NC(=O)[C@H](CC(N)=O)NC(=O)[C@H](CO)NC(=O)[C@H](CO)NC(=O)[C@H](CCCNC(=N)N)NC(=O)[C@H](Cc1c[nH]cn1)NC(=O)[C@H](CC(C)C)NC(=O)[C@H](Cc1ccccc1)NC(=O)[C@H](CCC(=O)O)NC(=O)[C@H](C)NC(=O)[C@H](CC(C)C)NC(=O)[C@H](CCCNC(=N)N)NC(=O)[C@H](CCC(N)=O)NC(=O)[C@@H](NC(=O)[C@H](C)NC(=O)[C@@H]1CSSC[C@H](NC(=O)CC[C@H](NC(=O)CCCCCCCCCCCCCCCCCCC(=O)O)C(=O)O)C(=O)NCC(=O)N[C@@H]([C@@H](C)O)C(=O)N[C@@H](C)C(=O)N[C@@H]([C@@H](C)O)C(=O)N1)[C@@H](C)O)C(=O)N[C@@H](CC(C)C)C(=O)N1CCC[C@H]1C(=O)N1CCC[C@H]1C(=O)N[C@H](C(=O)N[C@@H](CCC(=O)O)C(=O)N[C@H](C(=O)NCC(=O)N[C@@H](CO)C(=O)NCC(=O)N[C@H](C(=O)N[C@@H](Cc1ccc(O)cc1)C(N)=O)[C@@H](C)O)C(C)C)[C@@H](C)O)
